According to patent US20060242739A1, “Plant nucleotide-sugar pyrophosphatase/phosphodiesterase (nppase), method of obtaining same and use of same in the production of assay devices and in the production of transgenic plants” (Universidad Publica De Navarra, priority 2002, published 2006):
One block for each molecule: values may come before it.

What was measured:
[1] = slightly basic pH
[2] = target: T1, NPPase from barley leaves (Hordeum vulgare, UniProt Q687E1); experiment: Enzymatic test of soluble NPPase from barley leaves: kinetic parameters, substrate specificity, effectors; settings: qualitative
T1 sequence (Q687E1 19-368): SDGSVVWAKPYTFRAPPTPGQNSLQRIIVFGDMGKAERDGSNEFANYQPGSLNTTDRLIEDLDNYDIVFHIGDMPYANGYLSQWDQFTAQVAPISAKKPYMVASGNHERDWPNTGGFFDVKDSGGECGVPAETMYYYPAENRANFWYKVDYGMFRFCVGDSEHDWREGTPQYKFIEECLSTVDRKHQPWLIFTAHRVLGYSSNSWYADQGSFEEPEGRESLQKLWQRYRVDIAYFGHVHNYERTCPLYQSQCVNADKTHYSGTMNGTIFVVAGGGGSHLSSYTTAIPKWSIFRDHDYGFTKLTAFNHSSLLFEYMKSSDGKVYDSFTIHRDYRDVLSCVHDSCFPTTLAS

B1: NPPase: plant nucleotide pyrophosphatase/phosphodiesterase, soluble 70-kDa isoform purified from barley leaves (protein)
chain: MVSRKRGGGGGVAMAVAMLLAAASASRPSSSLEGFQPLSKIAVHKATVDLHGSAFVSATPALLGDQGEDTEWVTVKYGWANPSADDWIAVFSPADFISGSCPNPSRYPDEPLLCTAPIKYQFANYSANYVYWGKGSIRFQLINQRYDFSFALFTGGLENPKLVAVSEAISFKNPKAPVYPRLAQGKSYDEMTVTWTSGYDISEAYPFVEWGMVVAGAAAPTRTAAGTLTFNRGSMCGDPDRTVGWRDPGFIHTAFLRDLWPNKEYYYKIGHELSDGSIVWGKQYTFRAPPFPGQNSLQRIIVFGDMGKAERDGSNEFANYQPGSLNTTDRLVEDLDNYDIVFHIGDLPYANGYISQWDQFTAQVAPITAKKPYMIASGNHERDWPNTGGFFDVKDSGGECGVPAETMYYYPAENRANFWYKVDYGMFRFCIADSEHDWREGTDQYKFIEQCLSTVDRKHQPWLIFAAHRVLGYSSNWWYADQQSFEEPEGRESLQRLWQRHRVDVAFFGHVHNYERTCPMYQSQCVSGERRRYSGTMNGTIFVVAGGGGSHLSDYTSAIPKWSVFRDRDFGFVKLTAFNHSSLLFEYKKSSDGKVYDSFTVERDYRDVLSCVHDSCLPTTLAS
pH sensitivity [1]: sensitive

resistance of NPPase to ionic detergents and proteases [2]: resistant
B2: Proteinase K: protease (Boehringer) (protein, UniProt P06873 106-384, looked up)
Proteinase K: AAQTNAPWGLARISSTSPGTSTYYYDESAGQGSCVYVIDTGIEASHPEFEGRAQMVKTYYYSSRDGNGHGTHCAGTVGSRTYGVAKKTQLFGVKVLDDNGSGQYSTIIAGMDFVASDKNNRNCPKGVVASLSLGGGYSSSVNSAAARLQSSGVMVAVAAGNNNADARNYSPASEPSVCTVGASDRYDRRSSFSNYGSVLDIFGPGTSILSTWIGGSTRSISGTSMATPHVAGLAAYLMTLGKTTAASACRYIADTANKGDLSNIPFGTVNLLAYNNYQA
